Laboratory results from US20190336529A1 (OSLO UNIVERSITETSSYKEHUS HF, published 2019).
Each block holds one molecule with its values, some of them ahead of it.

Assays:
[1] = target: MART-1 peptide on HLA-A*02:01 (human); assay: CD107a by flow cytometry; sorted TCR+ CD8- T cells incubated for 5 hours with peptide-loaded T2 cells. The result sentence names SEQ ID NO: 56, but the method says the cells were loaded with the analogue SEQ ID NO: 80.; full-length, on cells
[2] = target: MART-1 26-35 peptide (SEQ ID NO: 56) presented by HLA-A2 on cells (human); assay: cell-based or functional assay
[3] = target: TGFβRII frameshift peptide p573 (SEQ ID NO: 1) presented by HLA-A2 on cells (human); assay: cell-based or functional assay

- EC50 of peptide [1]: 7 nM
Molecule: DMF5

- EC50 of the peptide for CD107a staining of TCR+ CD8- T-cells after 5 hours with peptide-loaded HLA-A2+ T2 cells [2]: 7 nM
Molecule: MART-1-specific TCR DMF5 (on the surface of transduced T-cells)

- EC50 of the peptide for CD107a staining of TCR+ CD8- T-cells after 5 hours with peptide-loaded HLA-A2+ T2 cells [3]: 2 nM
B1: Radium-1 TCR (full-length, on the surface of T-cells) (TCR, V domains shown)
V domain 1: GIQVEQSPPDLILQEGANSTLRCNFSDSVNNLQWFHQNPWGQLINLFYIPSGTKQNGRLSATTVATERYSLLYISSSQTTDSGVYFCAVNAGNMLTFGGGTRLMVKP
V domain 2: DVKVTQSSRYLVKRTGEKVFLECVQDMDHENMFWYRQDPGLGLRLIYFSYDVKMKEKGDIPEGYSVSREKKERFSLILESASTNQTSMYLCASSSGVTGELFFGEGSRLTVLE
